Like-named read-outs stand apart in the source and are kept apart here. TMR = 6-carboxytetramethylrhodamine

Data on two molecules can be found in PMC6338552 (Biochemistry, 2018).

B1: TMR-JIPtide (peptide)
peptide: {TMR}-RPKRPTTLNLF-OH
B2: His6-JNK1α1 (enzyme, UniProt P45983-2 1-384, looked up)
chain: MSRSKRDNNFYSVEIGDSTFTVLKRYQNLKPIGSGAQGIVCAAYDAILERNVAIKKLSRPFQNQTHAKRAYRELVLMKCVNHKNIIGLLNVFTPQKSLEEFQDVYIVMELMDANLCQVIQMELDHERMSYLLYQMLCGIKHLHSAGIIHRDLKPSNIVVKSDCTLKILDFGLARTAGTSFMMTPYVVTRYYRAPEVILGMGYKENVDLWSVGCIMGEMVCHKILFPGRDYIDQWNKVIEQLGTPCPEFMKKLQPTVRTYVENRPKYAGYSFEKLFPDVLFPADSEHNKLKASQARDLLSKMLVIDASKRISVDEALQHPYINVWYDPSEAEAPPPKIPDKQLDEREHTIEEWKELIYKEVMDLEERTKNGVIRGQPSPLAQVQQ

Common to all, as to assay: fluorescence polarisation
Test [1] has as its target B2.
The target of test [2] is T1, His6-JNK3α1 (UniProt P53779-2 1-422).
For test [3], the target named is T2, His6-JNK2α1 (UniProt P45984-2 1-382).
The target of test [4] is B2. The source holds these as a separate data set.
Test [5] concerns the target T1, His6-JNK3α1. This is another data set of the same source.
The target in test [6] is T2, His6-JNK2α1. The source holds these as a separate data set.
For test [7], the target named is B2. The source holds these as a separate data set.
Test [8] has as its target T1, His6-JNK3α1. This is another data set of the same source.
For test [9], the target named is T2, His6-JNK2α1. The source holds these as a separate data set.
For test [10], the target named is B2. This is another data set of the same source.
Test [11] has as its target T1, His6-JNK3α1. This is another data set of the same source.
Test [12] deals with T2, His6-JNK2α1. This is another data set of the same source.
Test [13] concerns the target B2. This is another data set of the same source.
Test [14] concerns the target T1, His6-JNK3α1. This is another data set of the same source.
The target in test [15] is T2, His6-JNK2α1. This is another data set of the same source.
Test [16] deals with B2. The source holds these as a separate data set.
Test [17] concerns the target T1, His6-JNK3α1. This is another data set of the same source.
Test [18] addresses T2, His6-JNK2α1. This is another data set of the same source.
Test [19] concerns the target B2. This is another data set of the same source.
The target of test [20] is T1, His6-JNK3α1. The source holds these as a separate data set.
Test [21] deals with T2, His6-JNK2α1. The source holds these as a separate data set.
The target of test [22] is T1, His6-JNK3α1. The source holds these as a separate data set.
The test “TMR-JIPtide” deals with B1.

Turning to B1, the equilibrium dissociation constant (Kd) in the test with His6-JNK1α1 [1] came to 680 nM; with His6-JNK3α1 [2], 1700 nM; with His6-JNK2α1 [3], 37000 nM; with His6-JNK1α1 [4], 1500 nM; with His6-JNK3α1 [5], 2800 nM; with His6-JNK2α1 [6], 6000 nM. Besides, the Kd turned out to be 250 nM in the test with His6-JNK1α1 [7]; 640 nM in the test with His6-JNK3α1 [8]; 3000 nM in the test with His6-JNK2α1 [9]; 14000 nM with His6-JNK1α1 [10]; 12000 nM with His6-JNK3α1 [11]; 17000 nM with His6-JNK2α1 [12]. The Kd with His6-JNK1α1 [13] was 3200 nM; with His6-JNK3α1 [14] it was 4600 nM; with His6-JNK2α1 [15] it was 15000 nM; with His6-JNK1α1 [16], 230 nM; with His6-JNK3α1 [17] it was 480 nM; with His6-JNK2α1 [18], 4600 nM. Further, the dissociation constant (Kd) with His6-JNK1α1 [19] is 440 nM; with His6-JNK3α1 [20], 1500 nM; with His6-JNK2α1 [21] it was 5100 nM; with His6-JNK3α1 [22] it was 1900 nM.
As for B2, the “fold tighter binding than apo-JNK1” value in the test with TMR-JIPtide stood at 2 fold.

Broadly, the Kd is a measure of binding affinity in units of concentration. The low end stands for higher affinity, the high end for lower affinity.
